Ends that are not written are not given here.
How the values were obtained:
Assay in all cases: peptide microarray
ApoC3 peptide … D59A = target: T1, ApoC3 peptide … D59A (human, cyclic constrained)
T1 peptide: AKFSEFWDLDPEV
Procedure: (§1) F64 was completely variable.
(§2) Pre: staining of one of the ApoC3 peptide microarrays was done with the secondary antibody goat anti-human IgG (Fe) DyLight680 (1:5000) and control antibody mouse monoclonal anti-HA (12CA5) DyLight800 (1:2000) to investigate background interactions of the secondary antibody with the antigen-derived peptides that could interfere with the main assays. Subsequent incubation of other ApoC3 peptide microarrays with antibody samples was followed by staining with secondary and control antibodies as well as read-out at scanning intensities of 7/7 (red/green). The additional HA peptides framing the peptide arrays were stained as internal quality control to confirm the assay quality and the peptide microarray integrity.

ApoC3 peptide … S62C = ApoC3 peptide … S62C (human, cyclic constrained)
Procedure: as §1, §2

ApoC3 peptide … D66C = target: T2, ApoC3 peptide … D66C (human, not fully specified (bridges); also: cyclic constrained)
T2 peptide: DKFSEFWCLDPEV
Procedure: as §1, §2

ApoC3 peptide … K60D = target: T3, ApoC3 peptide … K60D (human, not fully specified (bridges); also: cyclic constrained)
T3 peptide: DDFSEFWDLDPEV
Procedure: as §1, §2

ApoC3 peptide … S62D = ApoC3 peptide … S62D (human, cyclic constrained)
Procedure: as §1, §2

ApoC3 peptide … P69D = target: T4, ApoC3 peptide … P69D (human, not fully specified (bridges); also: cyclic constrained)
T4 peptide: DKFSEFWDLDDEV
Procedure: as §1, §2

ApoC3 peptide … F61E = target: T5, ApoC3 peptide … F61E (human, cyclic constrained)
T5 peptide: DKESEFWDLDPEV
Procedure: as §1, §2

ApoC3 peptide … E70F = ApoC3 peptide … E70F (human, cyclic constrained)
Procedure: as §1, §2

ApoC3 peptide … K60G = target: T6, ApoC3 peptide … K60G (human, not fully specified (bridges); also: cyclic constrained)
T6 peptide: DGFSEFWDLDPEV
Procedure: as §1, §2

ApoC3 peptide … F64G = target: T7, ApoC3 peptide … F64G (human, not fully specified (bridges); also: cyclic constrained)
T7 peptide: DKFSEGWDLDPEV
Procedure: as §1, §2

ApoC3 peptide … P69G = target: T8, ApoC3 peptide … P69G (human, not fully specified (bridges); also: cyclic constrained)
T8 peptide: DKFSEFWDLDGEV
Procedure: as §1, §2

ApoC3 peptide … K60H = target: T9, ApoC3 peptide … K60H (human, not fully specified (bridges); also: cyclic constrained)
T9 peptide: DHFSEFWDLDPEV
Procedure: as §1, §2

ApoC3 peptide … P69H = target: T10, ApoC3 peptide … P69H (human, not fully specified (bridges); also: cyclic constrained)
T10 peptide: DKFSEFWDLDHEV
Procedure: as §1, §2

ApoC3 peptide … S62I = ApoC3 peptide … S62I (human, cyclic constrained)
Procedure: as §1, §2

ApoC3 peptide … P69I = target: T11, ApoC3 peptide … P69I (human, not fully specified (bridges); also: cyclic constrained)
T11 peptide: DKFSEFWDLDIEV
Procedure: as §1, §2

ApoC3 peptide … V71I = ApoC3 peptide … V71I (human, cyclic constrained)
Procedure: as §1, §2

ApoC3 peptide … D68K = target: T12, ApoC3 peptide … D68K (human, cyclic constrained)
T12 peptide: DKFSEFWDLKPEV
Procedure: as §1, §2

ApoC3 peptide … P69K = target: T13, ApoC3 peptide … P69K (human, not fully specified (bridges); also: cyclic constrained)
T13 peptide: DKFSEFWDLDKEV
Procedure: as §1, §2

ApoC3 peptide … V71K = ApoC3 peptide … V71K (human, cyclic constrained)
Procedure: as §1, §2

ApoC3 peptide … D59L = target: T14, ApoC3 peptide … D59L (human, cyclic constrained)
T14 peptide: LKFSEFWDLDPEV
Procedure: as §1, §2

ApoC3 peptide … K60L = target: T15, ApoC3 peptide … K60L (human, not fully specified (bridges); also: cyclic constrained)
T15 peptide: DLFSEFWDLDPEV
Procedure: as §1, §2

ApoC3 peptide … F61L = target: T16, ApoC3 peptide … F61L (human, not fully specified (bridges); also: cyclic constrained)
T16 peptide: DKLSEFWDLDPEV
Procedure: as §1, §2

ApoC3 peptide … E63L = ApoC3 peptide … E63L (human, cyclic constrained)
Procedure: as §1, §2

ApoC3 peptide … F61N = target: T17, ApoC3 peptide … F61N (human, not fully specified (bridges); also: cyclic constrained)
T17 peptide: DKNSEFWDLDPEV
Procedure: as §1, §2

ApoC3 peptide … L67N = target: T18, ApoC3 peptide … L67N (human, not fully specified (bridges); also: cyclic constrained)
T18 peptide: DKFSEFWDNDPEV
Procedure: as §1, §2

ApoC3 peptide … D68N = target: T19, ApoC3 peptide … D68N (human, cyclic constrained)
T19 peptide: DKFSEFWDLNPEV
Procedure: as §1, §2

ApoC3 peptide … P69N = ApoC3 peptide … P69N (human, cyclic constrained)
Procedure: as §1, §2

ApoC3 peptide … S62P = ApoC3 peptide … S62P (human, cyclic constrained)
Procedure: as §1, §2

ApoC3 peptide … E63P = ApoC3 peptide … E63P (human, cyclic constrained)
Procedure: as §1, §2

ApoC3 peptide … K60Q = target: T20, ApoC3 peptide … K60Q (human, not fully specified (bridges); also: cyclic constrained)
T20 peptide: DQFSEFWDLDPEV
Procedure: as §1, §2

ApoC3 peptide … P69R = ApoC3 peptide … P69R (human, cyclic constrained)
Procedure: as §1, §2

ApoC3 peptide … E70S = target: T21, ApoC3 peptide … E70S (human, cyclic constrained)
T21 peptide: DKFSEFWDLDPSV
Procedure: as §1, §2

ApoC3 peptide … D59V = target: T22, ApoC3 peptide … D59V (human, not fully specified (bridges); also: cyclic constrained)
T22 peptide: VKFSEFWDLDPEV
Procedure: as §1, §2

ApoC3 peptide … F64V = target: T23, ApoC3 peptide … F64V (human, not fully specified (bridges); also: cyclic constrained)
T23 peptide: DKFSEVWDLDPEV
Procedure: as §1, §2

ApoC3 peptide … E63W = ApoC3 peptide … E63W (human, cyclic constrained)
Procedure: as §1, §2

ApoC3 peptide … L67W = target: T24, ApoC3 peptide … L67W (human, not fully specified (bridges); also: cyclic constrained)
T24 peptide: DKFSEFWDWDPEV
Procedure: as §1, §2

ApoC3 peptide … E70W = target: T25, ApoC3 peptide … E70W (human, cyclic constrained)
T25 peptide: DKFSEFWDLDPWV
Procedure: as §1, §2

ApoC3 peptide … V71W = ApoC3 peptide … V71W (human, cyclic constrained)
Procedure: as §1, §2

% of binding to wild-type peptide (ApoC3 peptide … D59A): 86.4%
% of binding to wild-type peptide (ApoC3 peptide … S62C): 10.4%
% of binding to wild-type peptide (ApoC3 peptide … D66C): 7.92%
% of binding to wild-type peptide (ApoC3 peptide … K60D): 151%
% of binding to wild-type peptide (ApoC3 peptide … S62D): 35%
% of binding to wild-type peptide (ApoC3 peptide … P69D): 98.5%
% of binding to wild-type peptide (ApoC3 peptide … F61E): 83.9%
% of binding to wild-type peptide (ApoC3 peptide … E70F): 9.36%
% of binding to wild-type peptide (ApoC3 peptide … K60G): 117%
% of binding to wild-type peptide (ApoC3 peptide … F64G): 168%
% of binding to wild-type peptide (ApoC3 peptide … P69G): 16.3%
% of binding to wild-type peptide (ApoC3 peptide … K60H): 124%
% of binding to wild-type peptide (ApoC3 peptide … P69H): 19.2%
% of binding to wild-type peptide (ApoC3 peptide … S62I): 129%
% of binding to wild-type peptide (ApoC3 peptide … P69I): 81.9%
% of binding to wild-type peptide (ApoC3 peptide … V71I): 54.3%
% of binding to wild-type peptide (ApoC3 peptide … D68K): 0%
% of binding to wild-type peptide (ApoC3 peptide … P69K): 26.3%
% of binding to wild-type peptide (ApoC3 peptide … V71K): 58.7%
% of binding to wild-type peptide (ApoC3 peptide … D59L): 68.6%
% of binding to wild-type peptide (ApoC3 peptide … K60L): 89.2%
% of binding to wild-type peptide (ApoC3 peptide … F61L): 61.3%
% of binding to wild-type peptide (ApoC3 peptide … E63L): 10.1%
% of binding to wild-type peptide (ApoC3 peptide … F61N): 48.3%
% of binding to wild-type peptide (ApoC3 peptide … L67N): 19.8%
% of binding to wild-type peptide (ApoC3 peptide … D68N): 0%
% of binding to wild-type peptide (ApoC3 peptide … P69N): 32.7%
% of binding to wild-type peptide (ApoC3 peptide … S62P): 27.1%
% of binding to wild-type peptide (ApoC3 peptide … E63P): 138%
% of binding to wild-type peptide (ApoC3 peptide … K60Q): 140%
% of binding to wild-type peptide (ApoC3 peptide … P69R): 17.4%
% of binding to wild-type peptide (ApoC3 peptide … E70S): 1.05%
% of binding to wild-type peptide (ApoC3 peptide … D59V): 65.1%
% of binding to wild-type peptide (ApoC3 peptide … F64V): 86%
% of binding to wild-type peptide (ApoC3 peptide … E63W): 1.91%
% of binding to wild-type peptide (ApoC3 peptide … L67W): 1.26%
% of binding to wild-type peptide (ApoC3 peptide … E70W): 2.84%
% of binding to wild-type peptide (ApoC3 peptide … V71W): 59.2%
B1: anti-ApoC3 antibody 6A6 (antibody, V domains shown)
VH: EVQLVESGGGLVQPGGSLRLSCAASGFTFSSYAGRWVRQVPGKGLEWVSSINAGGGSTSYADSVKGRFTISRDNAKNTLYLQMNSLKPEDTAKYYCTQNSYRYWGQGTRVAVSS
VL: DVVLTQTPGSLSVVPGESASISCKASQSLIHTDGKTYLYWLLQKPGQRPQLLIYQVSSHESGVPDRFTGSGSGTDFTLKISGVKAEDAGVYYCAQATYNPRTFGQGTKLEIK
notes: it was detected with goat anti-human IgG (Fc); also called mAb 6A6; llama antibody 6A6
